Data published in patent US20150272562A1 (ETHICON, published 2015).

Assays:
[1] = target: T1, fibrin monomers, dimers and/or oligomers (UniProt P02671 36-629; P02675 45-491; P02679 27-437); experiment: cell-based or functional assay
T1 sequence (looked up) 1: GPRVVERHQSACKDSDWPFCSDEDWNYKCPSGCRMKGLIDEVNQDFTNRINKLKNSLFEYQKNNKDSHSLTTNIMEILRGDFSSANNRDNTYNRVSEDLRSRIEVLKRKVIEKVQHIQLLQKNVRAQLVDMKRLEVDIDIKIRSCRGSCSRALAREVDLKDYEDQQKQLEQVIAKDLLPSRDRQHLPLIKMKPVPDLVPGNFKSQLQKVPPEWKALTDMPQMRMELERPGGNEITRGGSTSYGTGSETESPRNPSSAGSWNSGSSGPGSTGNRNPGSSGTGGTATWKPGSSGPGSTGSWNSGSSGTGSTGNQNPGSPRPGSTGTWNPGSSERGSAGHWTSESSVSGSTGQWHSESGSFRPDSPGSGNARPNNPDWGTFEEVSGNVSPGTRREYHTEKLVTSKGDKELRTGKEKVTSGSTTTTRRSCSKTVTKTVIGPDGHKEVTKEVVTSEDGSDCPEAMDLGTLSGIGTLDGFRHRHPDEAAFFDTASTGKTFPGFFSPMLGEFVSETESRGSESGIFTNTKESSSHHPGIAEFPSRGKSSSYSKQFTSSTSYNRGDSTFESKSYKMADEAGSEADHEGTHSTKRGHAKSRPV
T1 sequence (looked up) 2: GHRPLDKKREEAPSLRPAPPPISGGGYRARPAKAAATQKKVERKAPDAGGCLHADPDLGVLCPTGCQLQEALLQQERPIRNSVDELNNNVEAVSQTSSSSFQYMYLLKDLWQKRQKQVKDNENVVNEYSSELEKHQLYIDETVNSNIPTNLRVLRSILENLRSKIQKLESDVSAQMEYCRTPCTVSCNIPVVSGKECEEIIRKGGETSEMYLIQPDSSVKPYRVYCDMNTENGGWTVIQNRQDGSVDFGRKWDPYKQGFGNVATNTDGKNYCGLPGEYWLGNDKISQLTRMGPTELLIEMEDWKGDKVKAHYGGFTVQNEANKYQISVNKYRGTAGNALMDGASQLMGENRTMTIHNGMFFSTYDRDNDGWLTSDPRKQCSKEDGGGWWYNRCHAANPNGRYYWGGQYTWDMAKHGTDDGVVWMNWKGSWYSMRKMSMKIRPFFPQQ
T1 sequence (looked up) 3: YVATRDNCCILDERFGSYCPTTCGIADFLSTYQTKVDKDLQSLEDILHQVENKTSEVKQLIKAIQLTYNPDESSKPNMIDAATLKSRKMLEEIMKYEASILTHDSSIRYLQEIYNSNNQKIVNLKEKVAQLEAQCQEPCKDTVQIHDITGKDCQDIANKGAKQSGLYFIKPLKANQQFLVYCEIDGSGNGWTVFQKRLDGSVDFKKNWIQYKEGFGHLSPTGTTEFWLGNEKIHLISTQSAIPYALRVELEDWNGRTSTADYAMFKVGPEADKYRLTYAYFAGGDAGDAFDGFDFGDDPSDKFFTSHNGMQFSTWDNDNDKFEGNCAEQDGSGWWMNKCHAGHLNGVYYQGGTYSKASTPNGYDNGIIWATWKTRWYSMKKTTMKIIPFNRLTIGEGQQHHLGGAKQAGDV

[2] = target: T1, fibrin monomers, dimers and/or oligomers; experiment: cell-based or functional assay; remark: listed apart in the source

fibrin polymerization; 40 mM GPRP, molar ratio above 340:1 GPRP:fibrin [1]: > 14 days
Time to clot (cessation of flow on tube inversion); GPRP 0.1 mM, 1.1-fold GPRP:fibrin, 3% fibrin, thrombin 100 IU/ml [2]: 5 s
Time to clot (cessation of flow on tube inversion); GPRP 0.2 mM, 2.3-fold GPRP:fibrin, 3% fibrin, thrombin 100 IU/ml [2]: 7 s
Time to clot (cessation of flow on tube inversion); GPRP 0.5 mM, 5.7-fold GPRP:fibrin, 3% fibrin, thrombin 100 IU/ml [2]: 11 s
Time to clot (cessation of flow on tube inversion); GPRP 1 mM, 11.3-fold GPRP:fibrin, 3% fibrin, thrombin 100 IU/ml [2]: 13 s
Time to clot (cessation of flow on tube inversion); GPRP 1.5 mM, 17-fold GPRP:fibrin, 3% fibrin, thrombin 100 IU/ml [2]: 22 s
Time to clot (cessation of flow on tube inversion); GPRP 2 mM, 22.7-fold GPRP:fibrin, 3% fibrin, thrombin 100 IU/ml [2]: 28 s
Time to clot (cessation of flow on tube inversion); GPRP 3 mM, 34-fold GPRP:fibrin, 3% fibrin, thrombin 100 IU/ml [2]: 2.5 min
Time to clot (cessation of flow on tube inversion); GPRP 4 mM, 45-fold GPRP:fibrin, 3% fibrin, thrombin 100 IU/ml [2]: 8 min
Time to clot (cessation of flow on tube inversion); GPRP 5 mM, 56.7-fold GPRP:fibrin, 3% fibrin, thrombin 100 IU/ml [2]: 15 min
Binder: GPRP [GPRP peptide (Gly-Pro-Arg-Pro)]
